Substrate in data set [1]: O=C(COP(=O)(O)O)N(O)CCCCOP(=O)(O)O
Conditions: Candida albicans.

Substrate in data set [2]: CCCCCCCCCCCC(=O)OCCCCN(O)C(=O)COP(=O)(O)O
Particulars: Yersinia pestis.

Substrate in data set [3]: O=C(COP(=O)(O)O)N(O)CCCOP(=O)(O)O
Particulars: Oryctolagus cuniculus.

Substrate in data set [4]: O=C(COP(=O)(O)O)N(O)CCCCOP(=O)(O)O
Particulars: Oryctolagus cuniculus.

Substrate in data set [5]: O=C(COP(=O)(O)O)N(O)CCCCOP(=O)(O)O
Conditions: Helicobacter pylori.

Substrate in data set [6]: CCCCCCCCCCCC(=O)OCCCCN(O)C(=O)COP(=O)(O)O
Conditions: Helicobacter pylori.

Substrate in data set [7]: CCCCCCCCCCCC(=O)OCCCCN(O)C(=O)COP(=O)(O)O
Conditions: Mycobacterium tuberculosis.

A word on the Km: it is the concentration of substrate that gives half-maximal velocity.

B1: Fructose-bisphosphate aldolase (Candida albicans (strain SC5314 / ATCC MYA-2876) (Yeast)), Q9URB4 (protein)
chain: MAPPAVLSKSGVIYGKDVKDLFDYAQEKGFAIPAINVTSSSTVVAALEAARDNKAPIILQTSQGGAAYFAGKGVDNKDQAASIAGSIAAAHYIRAIAPTYGIPVVLHTDHCAKKLLPWFDGMLKADEEFFAKTGTPLFSSHMLDLSEETDDENIATCAKYFERMAKMGQWLEMEIGITGGEEDGVNNEHVEKDALYTSPETVFAVYESLHKISPNFSIAAAFGNVHGVYKPGNVQLRPEILGDHQVYAKKQIGTDAKHPLYLVFHGGSGSTQEEFNTAIKNGVVKVNLDTDCQYAYLTGIRDYVTNKIEYLKAPVGNPEGADKPNKKYFDPRVWVREGEKTMSKRIAEALDIFHTKGQL
B1: the Km in data set [1] stood at 100 µM.

B2: Fructose-bisphosphate aldolase class II (Yersinia pestis), A0A380PJR2 (protein)
chain: MSKIFDFVKPGVITGDDVQKVFAVAKENNFALPAVNCVGTDSINAVLETAAKVRAPVIVQFSNGGAAFIAGKGVKTDAPQGAAILGAISGAHHVHQMAEHYGVPVILHTDHCAKKLLPWLDGLLDAGEKHFAATGKPLFSSHMIDLSEESLEENIEICSKYLTRMSKIGMTLEIELGCTGGEEDGVDNSHMDASSLYTQPQDVDYAYEKLNAISPRFTIAASFGNVHGVYKPGNVKLTPTILRDSQDYVSKKHNLPHNSLNFVFHGGSGSTAEEIKEAVSYGVVKMNIDTDTQWATWEGILNYYKKNEGYLQGQLGNPEGADKPNKKYYDPRVWLRAAQVTMITRLELAFKELNAIDVL
In the case of B2, the Km in data set [2] was determined as 0.234 µM.

B3: Fructose-bisphosphate aldolase A (Oryctolagus cuniculus), P00883 (protein)
chain: MPHSHPALTPEQKKELSDIAHRIVAPGKGILAADESTGSIAKRLQSIGTENTEENRRFYRQLLLTADDRVNPCIGGVILFHETLYQKADDGRPFPQVIKSKGGVVGIKVDKGVVPLAGTNGETTTQGLDGLSERCAQYKKDGADFAKWRCVLKIGEHTPSALAIMENANVLARYASICQQNGIVPIVEPEILPDGDHDLKRCQYVTEKVLAAVYKALSDHHIYLEGTLLKPNMVTPGHACTQKYSHEEIAMATVTALRRTVPPAVTGVTFLSGGQSEEEASINLNAINKCPLLKPWALTFSYGRALQASALKAWGGKKENLKAAQEEYVKRALANSLACQGKYTPSGQAGAAASESLFISNHAY
With B3, the figures for the Km in data set [3] and in data set [4] were 264 µM and 15 µM, respectively.

B4: Fructose-bisphosphate aldolase (Helicobacter pylori (strain ATCC 700392 / 26695) (Campylobacterpylori)), P56109 (protein)
chain: MLVKGNEILLKAHKEGYGVGAFNFVNFEMLNAIFEAGNEENSPLFIQTSEGAIKYMGIDMAVGMVKTMCERYPHIPVALHLDHGTTFESCEKAVKAGFTSVMIDASHHAFEENLELTSKVVKMAHNAGVSVEAELGRLMGIEDNISVDEKDAVLVNPKEAEQFVKESQVDYLAPAIGTSHGAFKFKGEPKLDFERLQEVKRLTNIPLVLHGASAIPDNVRKSYLDAGGDLKGSKGVPFEFLQESVKGGINKVNTDTDLRIAFIAEVRKVANEDKSQFDLRKFFSPAQLALKNVVKERMKLLGSANKI
For B4, the Km worked out at 0.07 µM in data set [5] and 4 µM in data set [6].

B5: Fructose-bisphosphate aldolase (Mycobacterium tuberculosis), P9WQA3 (protein)
chain: MPIATPEVYAEMLGQAKQNSYAFPAINCTSSETVNAAIKGFADAGSDGIIQFSTGGAEFGSGLGVKDMVTGAVALAEFTHVIAAKYPVNVALHTDHCPKDKLDSYVRPLLAISAQRVSKGGNPLFQSHMWDGSAVPIDENLAIAQELLKAAAAAKIILEIEIGVVGGEEDGVANEINEKLYTSPEDFEKTIEALGAGEHGKYLLAATFGNVHGVYKPGNVKLRPDILAQGQQVAAAKLGLPADAKPFDFVFHGGSGSLKSEIEEALRYGVVKMNVDTDTQYAFTRPIAGHMFTNYDGVLKVDGEVGVKKVYDPRSYLKKAEASMSQRVVQACNDLHCAGKSLTH
Turning to B5, in data set [7], the Michaelis-Menten constant (Km) worked out at 0.31 µM.
